# The nanobody polyreactivity screen of Harvey et al. (2022)
# Test: yeast display, Sf9 membrane polyspecificity reagent, FACS + sequencing; frameworks hold sequencing errors
# Outline: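 Polyreactivity labels are assigned by the sorting gate from which each nanobody was recovered. The gates were low and high (top ~1%), set on anti-HA fluorescence for expression and streptavidin fluorescence for reagent binding. Before sorting, galactose-induced (36–48 hours) yeast display cells were stained for 1 hour at 4 °C with 10% biotinylated, detergent-solubilized Sf9 membrane reagent.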
row,Sequence,polyreactivity (PSR sort gate)
1,QVQLVESGGCLVQPGGSLRLSCAASGRTSVRNAMGWYRQAPGKERELVAAISNGGRTNYADSVKGRFTISRGNAKNTVYLQMNSLKPQDTAVYYCAARGFWLYYHGGVRSGYDYWGQGTQVTVSS,high polyreactivity
2,QVQLVESGGFLVQAGGSLRLSCDASGSILADTSLGWYRQAPGKERELVAAISRRGGRTYYADSVKGRFTISRDNAKNTVYLQMNSLKPEDTGGYYCAAVGSFHIGDYWGLGTQVTVSS,high polyreactivity
3,QVQLVESGGGCVQAGGSLRLSCAASGFIFEQNAKGWYRQARGKEWELVARISWRGGSTYYADSEKGRFTISRDKAKITVYLQMNSLKPEDSAVYYCNAHEVDYFGYYPSDYWGQGTQVTVSS,low polyreactivity
4,QVQLVESGGGFFQAGGSLRLSCAASGTIGRNAMGWYRQAPGKESEFVPAISYRGTSTYYADSVKGRFTISRDNAKNTVYLQMKSLKPDDTAVYYCATYWAAGYRSRYDYWGQVTQVTVSS,high polyreactivity
5,QVQLVESGGGFVQAGASLRLSCAASGSIFRIYAIGWYRQAPGKERELVAAIDSGGSTNYADSVKGRFTISRDNAKNTVYLQMNSLKPEDTAVYYCNVDAWWLSYSEYDYWGQGTQVTVSS,high polyreactivity
6,QVQLVESGGGFVQAGGRLRLSCAASGRIFWMNAMGWYRQAPGKETEFVASITYGSDSTYYADSVKGRFTISRDNAKNTVYLQMNSLKPEDTAVYYCNREGWHYGPYGYWGQGTQVTVSS,low polyreactivity
7,QVQLVESGGGFVQAGGSLGLSCAASGSTFQFYALGWYRQAPGKERELVAVITSGDDTNYADSVKGRFTISRDNATYTVYLQMNSLKPEDTAVYYCAVEYILVYTRVRSYWFDYWGQGTQVTVSS,low polyreactivity
8,QVQLVESGGGFVQAGGSLPLSCAASGRTFGPYAMRWYRQAPGKERELVAAISSSDGSTYYADSVKGRFTISRDNAKNTVYLQMNSLKPEDTAVYYCNARYYLWSTTRWYGYDYWGQGTQVTVSS,high polyreactivity
9,QVQLVESGGGFVQAGGSLRLRCAASGLIFAPYAMGWYRQAPGKEREFVAAITRSDGSTYYADSVKGRFTISRDNAKNTVYLQMNSLKPEDTAVYYCAAEPDTYWYTYDYWGQGSQVTVSS,low polyreactivity
10,QVQLVESGGGFVQAGGSLRLSCAACGSTFATYGMGWYRQAPGKERELVADITSGGSTYYADSVKGRFTISRDNAKNTVYLQMNSLKPEDTAVYSCNAPYGGPYYIQYDYWGQGTQVTVSS,low polyreactivity
11,QVQLVESGGGFVQAGGSLRLSCAASGFIFAVNAMGWYRQAPGKERELVAAISSSGTTNYADSVKGRFTISRDNAKNTVYLQMNSLKPEDTAVYYCNKRWRDKYPQYDYWGQGTQVTVSS,low polyreactivity
12,QVQLVESGGGFVQAGGSLRLSCAASGFIFTKYAMGWYRQAPGKERELVAAIRGSGGSTYYADSVKGRVTISRDNAKNTVYLQMNSLKPEDTAVYYCAAERSLGYDYWGQGTQVTVSS,high polyreactivity
13,QVQLVESGGGFVQAGGSLRLSCAASGFTFWVYAMGWYRQAPGKERELVAGITWSGGSTSYADSVKGRFTISRDNAKNTVYLQMNSLKPEDTAVYYCAADDFGYPDDMNYWGQGTQVTVSS,low polyreactivity
14,QVQLVESGGGFVQAGGSLRLSCAASGFTFYRNAMGWYRQAPGKERELVAAITWSGTSTYYADSVKGRFTISRDNAKTTVYVQMNSLKPEDTAVYYCNTVGYRGRSNSRFYYWGQGTQVTVSS,high polyreactivity
15,QVQLVESGGGFVQAGGSLRLSCAASGHIFFYYTKGWYRQAPGKERELVAGITIGGSTNYADSVKGRFTISRDNAKNSVYLQMNSLKPEDTAVYYCYVVLYVSIYSYGEYYYWGQGTQVTVSS,low polyreactivity
16,QVQLVESGGGFVQAGGSLRLSCAASGRIFVVNAMLWYRPAPAKESEFVAAISRSGGSTYYADSVKGRFTISRDKATNTVYLQMNSLKREDTAVYYCAADIVGFRTSGTYEYWGHGTQVTVSS,low polyreactivity
17,QVQLVESGGGFVQAGGSLRLSCAASGSTFKTYTLGWYRQAPGKDRELVAGITSGGSTSYADSVKGRFTISRDNAKNTVYLQMNSLKPEATAVYYCNADAYLVIYFYTVRDYGYDYWGQGTQVTVSS,low polyreactivity
18,QVQLVESGGGFVQAGGSLRLSCAASGSTFRWNAMGWYRHAPGKERELDASITAGGSTNYADSVKGRFTISRDNAKNTVYLQINSLTPEDTAVYYCNADVRRSTYYVWLYDYWGQGTQVTVSS,low polyreactivity
19,QVQLVESGGGFVQAGGSLRLTCAASGRTFAKNTMGWYRQAPGKERELVAAITWRGGTTYYADSVKGRVTISRDNAKNTVYLQMNSLKPEDTAVYYCAKDRYYGYFRSRSDYWGQGTQVTVSS,high polyreactivity
20,QVQLVESGGGFVQAGGSRRLSCAASGRIFDDNAMGGYRPAPGKERELVAAISSGDYTKYADSVKGRFTISRDNSKNSVYLQMNSLKPEDTAVYYCAADIVSDSFYQPEYDYWGQGTQVTVSS,low polyreactivity
21,QVQLVESGGGIFQAGGSLRLSCAASGFTFQYYAMGWYRQAPGKERELVAAISRRGGRTDYADSVKGRFTISRDNAKNTVYLQMNSLKPEDTAVYYCAAAVASPYDYWGLGTQVTVSS,high polyreactivity

row,Sequence,polyreactivity (PSR sort gate)
1,QVQLVESGGGIVQAGCSLRLSCAASGFTFERYTMGWYRQAPGKERELVATISRRSGRTSYADSVKGRFTISRDNAKNTVYLQMNSLNPEDTAVYYCAVDDAYPDRYDYWGQGTQVTVSS,high polyreactivity
2,QVQLVESGGGIVQAGGILRLSCAASGSTFAGNGMGWYRQAPGKERELVAGIDVTGGSKYYADSVKGRYTISRDNAKNTVYLQMNSLKPEDTAVFDCNARYVYHSSFAGFDYWGQGTQVTVSS,low polyreactivity
3,QVQLVESGGGIVQAGGRLRKSCAASGRTFDSNAMGWYRQAPGKERELVAGISESGGSTYYADSVKGRFTISRDNAKNTVYLQMNSLKPEDTAVYYCDYSGITVYYHRAVDFIVSYDYWGQGTQVTVSS,low polyreactivity
4,QVQLVESGGGIVQAGGRLRLSWAASGNTFDYYAMGWYRQAPWKERELVAAITRGGSTNYADSVKGRFTISRDNAKNTVYLQRNSRKPEDTAVYYCAAEQRAPRGADDDYCGQGTQVTVSS,low polyreactivity
5,QVQLVESGGGIVQAGGSIRLRCAASGIIFVVNDMGWYRQAPGKERELVADISDSGGSTNYADSVKGRFTISRDNAKNTVYLQMNRLKPEDTAVYYCAADSADPTEYDYWGQGSQVTVSS,low polyreactivity
6,QVQLVESGGGIVQAGGSLRISCAASGFIFSSYDMGWYRQAPGKERELVAAITWSGGSTYYADSVKARFTISRDNAKNTVYLHMNSLKPEDTAVYYCNAYPYYLVRNMDSWGQGTQVTVSS,high polyreactivity
7,QVQLVESGGGIVQAGGSLRISCAASGYTFKWYDMGWYRQAPGKEWELVASISWRGGSTYYADSVKGRYTISRDNAKNTVYFQMNSLKPEDTAVYYCAASLWPDYEYDYWGQGTQVTVSS,low polyreactivity
8,QVQLVESGGGIVQAGGSLRISFAASGFTFLGNAMGWYRQEPGKERELVARISTRGGTTYYADSVKGRFTISRDNAKYTVYFQMNRLKPEDTAVYYCAKKYYLYSPYRTGYDYWGQGTQVTVSS,high polyreactivity
9,QVQLVESGGGIVQAGGSLRLICAASGLILYGYTMGWYRQAPGKDRQLVAAISRGGGGTYYADSVKGRFTISRDNVKNTVYLQINSLKPEDTAVYYCAAYVYSLGGEYFYWGQGTLVTVSS,high polyreactivity
10,QVQLVESGGGIVQAGGSLRLRCAASGSIISVYAMGWYRQAPGKERELLDGITISGGRTYYADSVKGRFTISRDYAKNTVYLQMNSMKPEDTAVYYCAADWVYPPGLNDSVHFGEYDYWGQGSQVTVSS,low polyreactivity
11,QVQLVESGGGIVQAGGSLRLRCAASVRIFPCNTMGWYRQAPGKERELVAGINNGDRTYYADSVKGRFTISRDYAKNTVYLQMNILKPEDTAVYYCAADYVYFYFYGYDSWGQRTQVTVSS,low polyreactivity
12,QVQLVESGGGIVQAGGSLRLSCAASGFIFKKYVMGWYRQAPGKERELVAGISRSGGSTYYADSVKGRFTISRENAKITVYFQMNSLKPEDTAVYYGAAYIYQSPTRGGGYWGQGTQVTVSS,high polyreactivity
13,QVQLVESGGGIVQAGGSLRLSCAASGFIFSNYAMGWYRQAPGKERELVAAISSGGTITKYADSVKGRFTISRDNAKNTVYLQMNSLKTEDTAVYYCNAVVRVRFRKNDYWGQGTQVTVSS,high polyreactivity
14,QVQLVESGGGIVQAGGSLRLSCAASGFTFAVNAMGWYRQAPGKERELVAGISRRGGNTYYADSVKGRFTISRDNAKNTVYLQMNSLKPEDTAVYYCARYSYSYWGQGTQVTVSS,high polyreactivity
15,QVQLVESGGGIVQAGGSLRLSCAASGFTFDYNTMGWYRQAPGKERELVAAISWSGGSTYYADSVKGRFTISRDNAKNTVYLQMNSLKPEDTAVYYCAAAWSYRYELYYCGQGTQVTVSS,low polyreactivity
16,QVQLVESGGGIVQAGGSLRLSCAASGFTFTRYAMGSYRQAPGKERELVATITKRGGSTYYADSVKGRFTISRDNAKNTVYLKMNSLKPEDTAVYYCAADGASRALYDYWGQGTQVTVSS,high polyreactivity
17,QVQLVESGGGIVQAGGSLRLSCAASGFTFVNNAIGWYRQAPGKERELVASITRRGGRTYYADSVKGRFTISRDNAKNTVYLQMNSLKPEDTAVYYCAVQGYGWGPLGYAEYDYWGQGTQVTVSS,high polyreactivity
18,QVQLVESGGGIVQAGGSLRLSCAASGFTIPRYAMGWYRQAPGKERELVAAITVGGGRTYYADSVKGRFTISRDNAKNTVYLQMNSLKPEDTAVYYCAADSHASTYDYWGQGTQVTVSS,low polyreactivity
19,QVQLVESGGGIVQAGGSLRLSCAASGIIFKYYAMGWYRQAPGKERELVAAISRIGGSTHYADSVKGRFTISRDNAKYTVYLQMNSLKPEDTAVSYCAARVLGRPLYFIYDYWGQGTQVTVSS,high polyreactivity
20,QVQLVESGGGIVQAGGSLRLSCAASGIIFRYYAMGWYRQAPGNERELVAVITGRGGGTYYADSVKGRFTISRDNAKNTVYLQMNSLKPEDTAVYYCAKDFTGHYPKGFDYWGQGTQLTVSS,low polyreactivity
